In the supplement of paper PMC9170038:

Test system: MS2 coat protein
Assay: apparent KD of MS2 coat protein; designed switch direction (-1 OFF switch, 1 ON switch): 1; higher = weaker reporter binding
How it was run: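 An oligonucleotide input, 200 uM small-molecule ligand, or no input was present during titration of SNAP-549-labelled MS2 coat protein, which was doubled from 0.7 or 1.5 nM to 3 µM. Designed RNA switches had been transcribed on Illumina chips by stalled E. coli RNA polymerase. Apparent KD per design is the median over clusters of curves fitted to normalised cluster fluorescence.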

[1] = input ligand: microRNA oligo, concentration not stated
[2] = Eterna round: R95, input ligand: FMN 200 uM
[3] = Eterna round: R95, input ligand: microRNA oligo, concentration not stated
[4] = Eterna round: R95, input ligand: none

Row | Sequence | apparent KD of MS2 coat protein (input ligand: FMN 200 uM) [nM] | apparent KD of MS2 coat protein [1] [nM] | apparent KD of MS2 coat protein (input ligand: none) [nM] | apparent KD of MS2 coat protein [2] [nM] | apparent KD of MS2 coat protein [3] [nM] | apparent KD of MS2 coat protein [4] [nM]
1 | UCUCGGCACGCAGGAUAUCCCGCUUCCUGGUGAGGAGAAGGGUGGUCGGGAAAACAUGAGGAUCACCCAUGUAAAAGUAAGAGG [Usdidige] (Eterna round: R96, puzzle: Same State NG 1) | 41.6 | 61.3 | 183 | – | – | –
2 | UUAAUGAUGUAAGGAUAUACAUGAGGAUUUCUCGUAGAAGGUACAAGACAUGAGGAUCACCCAUGUGUCGCUCCGUAGAGCGUA [JL SSNG1 1.09] (Eterna round: R96, puzzle: Same State NG 1) | – | 132 | – | – | – | –
3 | CUGAGCGAUCAAGGAUAUCACGUCGAAUAGACGUGAGAAGGUGAUCCAUACAUGAGGAUCACCCAUGUAUAACAUGAAGCUCAG [SSNG1/8-A1] (Eterna round: R96, puzzle: Same State NG 1) | 794 | 21.6 | 404 | – | – | –
4 | AAGCAUGAAAACAUGCAUAAAAAGUUUGUACAUGAGGAUCACCCAUGUAUGUGCAAGCUUUUUGCUCGUCUUGAAAA [JL SD Zipper 5] (Eterna round: R96, puzzle: Sensor for hsa-mir-208a) | 171 | 17.4 | 171 | – | – | –
5 | UCAAGCGUUUGGCUCGUCUUAUGUUUGGUACAUGAGGAUCACCCAUGUUAUGUACGAUCCAGUUAGAUGGUAUUUUG [JR_SHM208A_Sub037] (puzzle: Sensor for hsa-mir-208a) | – | – | – | 35.9 | 127 | 47.1
6 | UGGUACAUGGGAGGAUAUGGAGUGAUGACAUGAGGAUCACCCAUGUUAUUUAUGCCGAGAGGCAACUAGAAGGCCCAUGUACCU [JL SSNG1 3.96] (Eterna round: R96, puzzle: Same State NG 2) | 16.7 | 40.8 | 52 | – | – | –
7 | UUCUCUCUGGUAGGAUAUGUAGGAUAUGUACAUGAGGAUCACCCAUGUCAGUUAAUGACAGAAGGAUAGAAGGACCAGAUCUCU [pwkr ssNG2 2FMN 1F5s.2] (Eterna round: R96, puzzle: Same State NG 2) | 115 | 72.4 | 127 | – | – | –
8 | CAGUGCUGUUGAGAGGAUAUGCGGCGACGGACAUGAGGAUCACCCAUGUUAGCGACAGCGUUGCGGCAGAAGGCUCUGCCCACUG [Soteed Omei mod 49] (puzzle: Same State 2) | – | – | – | – | 8.8 | –
9 | GUGUAUAGCCUCGAGGAUAUCCUGUAAUGCACAUGAGGAUCACCCAUGUAUGAGCGAGUUUUUUGGGAGAAGGCGAGUUAUCGGU [JR_SS002_Sub1709] (Eterna round: R96, puzzle: Same State 2) | – | 18 | – | – | – | –
10 | AGCUAUCGCGUACGAUAGCUGAAGCAUGUACAUGAGGAUCACCCAUGUCAUGUGCAGGCUUUUUGCUCGUCUUAUUG [JL-shm-2.30 JL mod] (puzzle: Sensor for hsa-mir-208a) | – | – | – | 68.9 | 13.3 | 75.1
11 | GAGGGCGAAAGCGACAUGAGGAUCACCCAUGUCCUCGGAGGGCAGGAUAUCCGGCAGUAGCCGAAGGAGAAGGGUCGAAAAGAA [AK SSNG3-V2-35.1] (Eterna round: R96, puzzle: Same State NG 3) | 53.4 | 35.7 | 53.6 | – | – | –
12 | CCGUAGAUGGUAGGAUAUGGAGCCUUAUUGGCUCCAGAAGGAUCGAAACAUGAGGAUCACCCAUGUUCGGCGGUCAAUAGACCG [Eli NG1ss - 85] (Eterna round: R96, puzzle: Same State NG 1) | 22.5 | 17.6 | 23.9 | – | – | –
13 | ACACUUGCACAUGAGGAUCACCCAUGUUGACAAGCUUUUUGCUCGUCUUAUAGAACAAAGAAGAAGAACAACAGAAA [Victory 2] (puzzle: Sensor for hsa-mir-208a version 2) | – | – | – | 20.7 | 17.9 | 21.9
14 | UUGUUUCGUCAUUAACAUGAGGAUCACCCAUGUAUUGACCCAAAGGAUAUAUAUGUUUGUUUGUAAUAGAAGGUUGAUUGUUGU [JR_SSNG3_Sub091] (Eterna round: R96, puzzle: Same State NG 3) | 19.9 | 16.8 | 20.6 | – | – | –
15 | AACAAUCUAUCUGAGGAUAUCAUGAAAAAAACAUGAGGAUCACCCAUGUGCAGGAAAACUGCAUAUGAGAAGGCAGAUAGAUUGG [salish99_SS2_r3_003] (Eterna round: R96, puzzle: Same State 2) | – | 494 | – | – | – | –
16 | GUUAGGAAUCUAGCAUACAUGAGGAUCACCCAUGUUAGUGGGAAGGAUAUGGUACAGAAACUGUACCAGAAGGUCUUAUUGUUU [Omei SS(NG) 3 AV12] (Eterna round: R96, puzzle: Same State NG 3) | 210 | 348 | 408 | – | – | –

Row | Sequence | apparent KD of MS2 coat protein (input ligand: FMN 200 uM) [nM] | apparent KD of MS2 coat protein [1] [nM] | apparent KD of MS2 coat protein (input ligand: none) [nM] | apparent KD of MS2 coat protein [2] [nM] | apparent KD of MS2 coat protein [3] [nM] | apparent KD of MS2 coat protein [4] [nM]
17 | GCCAUCCAGUGAGGAUAUGGCACCGAAACGGUGCCAGAAGGCAUGUCAAUUGACAUGAGGAUCACCCAUGUAUUAUGGAUGGCA [Mat - Same State NG 1 - JL mod - D85] (Eterna round: R96, puzzle: Same State NG 1) | 102 | 694 | 695 | – | – | –
18 | CUUUAUCACUAUACAUGAGGAUCACCCAUGUUAUCAUCAUGAGAGGAUAUCGUAAUAGGAUUUUUCGAGAAGGCUCUAAAGUAU [JR_SSNG3_Sub078] (Eterna round: R96, puzzle: Same State NG 3) | 52.1 | 167 | 142 | – | – | –
19 | GGUAAGAACUAAGGAUAUUGAAUACAUAUGUUUAACAUGAGGAUCACCCAUGUGGGUUGCGGUGUCGAGAAGGUAGAAUAAUAG [Mat - same State NG 2 - JL mod - D102] (Eterna round: R96, puzzle: Same State NG 2) | 204 | 166 | 193 | – | – | –
20 | CAGCGCUGUCGAGAGGAUAUGUGGUGAUGGACAUGAGGAUCACCCAUGUUAGCGACAGCAUCACGGCAGAAGGCUCUACCGCUGC [Soteed Omei mod 30] (puzzle: Same State 2) | – | – | – | 31.2 | 40.6 | 23.1
21 | GCUCGGCUGAUGGCCCACAUGAGGAUCACCCAUGUGAGUGGGCAGGAUAUCUAGAUUAAGGAUGUAGAGAAGGGCCUACCGAGC [SameState NG3 #35] (Eterna round: R96, puzzle: Same State NG 3) | 443 | 106 | 244 | – | – | –
22 | AAAGGAUGAUUAUACAUGAGGAUCACCCAUGUUUGUAAUACUAAGGAUAUGUGACUUAAUUGUGAACAGAAGGUAGGUUCAUGA [AK SSNG3-V2-1] (Eterna round: R96, puzzle: Same State NG 3) | 56.8 | 43.6 | 62.2 | – | – | –
23 | UUUUUAUAACAUGAGGAUCACCCAUGUGCGCGCACAAGGUUGUUGCUCGUCUUAUUUUUUUUUUUUUUUUUUUUUUU [viviankchen2] (puzzle: Sensor for hsa-mir-208a version 2) | – | – | – | 33.2 | 220 | 44.1
24 | CUGAGAAGUCAAGGAUAUCACGUCGAUUAGACGUGAGAAGGUGAUCAGUACAUGAGGAUCACCCAUGUGUUACAUGGAACUCAG [Brourd's SSNG1/1-A2 mod 8] (Eterna round: R96, puzzle: Same State NG 1) | 1660 | 367 | 1110 | – | – | –
25 | GAGGAACAUGAGGAUCACCCAUGUGGGAUGGGACAAGGAUAUGUAGGUAGAGGAGAAGAGACAGAAGGUGUAGGAG [JR_SS1_Sub052] (puzzle: Same State 1) | – | – | – | 349 | 232 | 660
26 | GGUCCAGCCUGAGCUGGACUACAGCAUGUACAUGAGGAUCACCCAUGUCAUGUACAUGUUUUUUGUUUGUCUUAAAA [Sensorship 9 - Jieux - Sensor for hsa-mir-208a] (Eterna round: R96, puzzle: Sensor for hsa-mir-208a) | 200 | 57.5 | 503 | – | – | –
27 | AUAAAACAUGAGGAUCACCCAUGUCAACAAAGUCGAGGAUAUGGGCAAAUUAAAUAAGAACCAGAAGGCGAAUAAU [salish99_ss1_r3_024] (puzzle: Same State 1) | – | – | – | 33.3 | 184 | 232
28 | GUGGUCAGACAUGAGGAUCACCCAUGUGGAAUAAAUAACACACAGGAUAUCUAAUAUAAAAUAUAAGAGAAGGGUGGAUUGGUG (Eterna round: R96, puzzle: Same State NG 3) | – | 202 | – | – | – | –
29 | GUCGGGCAAGCUUUUUUCUCGUAGUGUAAACAUGAGGAUCACCCAUGUGCUCGCCCUGGAUCUUUGGAUCGCAGAAA [Isxevevere] (puzzle: Sensor for hsa-mir-208a) | – | – | – | 57.5 | 34.9 | 64.5
30 | UUUAGUUGCGGGCAGGAUAUGUAUUAAAGUACAUGAGGAUCACCCAUGUGCGGGUAUAACACCCGACAGAAGGGCCAAUCGCGAC [Laonerce - 1] (puzzle: Same State 2) | – | – | – | 17.7 | 64.3 | 115
31 | CCAGGACAUGAGGAUCACCCAUGUGCUUAAUGUGGAGAAUCUCAGGAUAUCAUGAGGAUCACCCAUGAGAAGGGAGAUCCGAGG (Eterna round: R96, puzzle: Same State NG 3) | 573 | 234 | 398 | – | – | –
